Test results published in the domain aggregation screens of Martell et al. (2025).

Experiment: soluble fraction after stress (log2 fold change); higher = more stays soluble; pooled small domains, quantitative proteomics
Conditions: stress: pH 4
Outline: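 With high-throughput quantitative proteomics, pooled custom libraries of small protein domains were measured after pH 4 stress. Each domain's soluble amount after the stress gives a fold change taken as aggregation propensity. Higher log2 values mean more of the domain stayed soluble.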

Sequence | soluble fraction (log2)
HMPFNREYWIEQLLKEVGLMGTPYAELDKHEVELDSPTGRASGFKVNAKTYVDQQLLFIENEYNNQPE | -0.899
HMASQEESVATYIQDYYRNPKTGESMVSDDMVEEFYKTHPEWEDQADGSKEGMEAVLDNFNEFFEINYG | -0.136
HMIKSIRELAEVITLWKNQGKTILIAEHRLSYLMDLADRVLYMKDGQIENDFSMADFRKIPPDEISRMGLR | -0.532
HMEQWVSIEVEPGIRLDVALTEATQKSRSFIQNLIAEQRVLVNGQPKKANYKVRPGDHVELNYPEPT | -0.415
HMRKNVAGITPNVYGMGLKDAVYLLENAGYRVKVNGRGNVVRQSINSGTRIIKGQLIILDLD | 0.0848
HMFTLDIGTIIRNRRLELNLTLEEIGNAVGVSKSTVQKWENGFISNMKRDKISALAKVLNINPVTLITGEY | -0.711
HMGLVQQSAQKSDDAAKLMAANNLNAAQSKYQLPDEAEKDFFTFAFERGYAVEDFVDAGLVDKIMADFSA | -0.44
HMNLEIGAIIKSLRAKHKYTQEQLSAFLGVTPQAVSRWEAGNGYPDIELLPAIARFFEVSTDELLGL | -1.32
HMLVYQRLDKDNFIFEGKTLLNDIYKILDIESNYFEAIRGEADSIAGLLLEIAKSIPTINTEF | -0.571
HMLDTPLTARELDVLYLMRQRMSAKEIAKQLGIATMTVNRHAANLYRKLGVNTRWDAVYRAEEVGILPP | -0.592
HMDAATDAIKAEVRALLEMANAQGIDTESIMLEAHEQTRNATEQDYYEAAKSALEAAIAGSNRDR | -0.319
HMAVWRIKVNYIPGYGVNIWSSYKNGHFTGKRAMHGETYEVLETKKDQDGNTWYKLDDHQWIEGRYAINAK | -0.88
HMAPLADQIVDLLKEHDGFLPLHDNSSPEDIRATVGTSKKAFKQAIGGLFREKRIVIGPTGIRLIS | 0.146
HMSNYPYLLRTYEGKLAVFTDDLVQPDLVFDVYVRTLPELDQQQLSRGIRVKTYDELTSMIEDYI | -0.956
HMTRNGTVTFFNHDKGYGFIKDVLTQESVFVHINSLSEPINEQNKVSFEIEMGPRGSNAINVKLI | -1.86
HMYKSSRASKSEVNKFLKFIIQSLDKRGFLQPGHKRQSMIRNIENIFYRTNLSDQEIRILLGIFSTLNK | -0.405
HMQAPAFDYSKVQEGVTVNHKIFGDGTVSWIDKARKYIRVQFSVGEKMFTMETAFVQGFLSL | -1.03
HMKTLGMDKGVNIALNDAGLRAEDVSNLSAHYDTEDGVPVYEIKFTAGGFSYEYQIKASDGTIIEADRDAA | -0.0393
HMVEGTVKWFNDEKGFGFIEQEGGKDVFVHFSAINGSGRRTLHEGQRVTMEVTQGQKGPQAENVNP | -0.436
HMYVTGETIRHLRTQRRMTQEQLAETLGVTGKAVSKWETGRGFPDMSLLEPLARALRISVPELLSGE | 0.0292
HMAHLSPNDAARLVGVSRPLLNQILDEGRITFFETAGGHRKIKLAAVLAYIKERDEVAAQLAAART | -0.514
HMSEYIFGKNVVKEAFNNPSRIEEIYVLDKNMEFVSLAKKYHIKYTVITSSEMNKMVSGNHQGVVALVK | -0.264
HMEFFIIDHNGQQAGPFSFDQLVQKGISPETLVWKQGMADWNPAWKVEELKAVLEAVEANQSNQKAQ | -1.3
HMIESLKGILHKKDPTIAIIDVGGVRLSVNITLSTYEKLEEINSSIELLTYFNVREDAMELYG | -0.377
HMIHSEDMDDHILGHKLVDQYLNKHIEFDNIKKAWNYHTVAIKKFGRYPHRNKILKRESTIEEIDFLKQP | -0.298
HMSQSYHLADRGQSLGTLDYQAVLVGLATGRLSPDTLSWQEGEAGWVALRQRPEFASGVSAVASL | -0.753

Sequence | soluble fraction (log2)
HMRIYTKDEYLAELSRYLHKLPQDDYESAMAYFREYFEEAGPENEAQAMRDLGTPKEAASEILQNLLH | -0.162
HMELLPAERRQQLVDWFKSNQAGTSQDLARMFGISVSTIRRDLDLLASEGLVKRTHGGAVSIR | 0.2
HMKMLSIQRREAIRALLLEKESITIAEVMEKFQISVETARRDFDALADEGFLNKVYGGATLKK | -1.24
HMGEKTLSEKVYDRLKELIMDGELERGTKITETSIAKMFDVSPTPVREAFRKLASDGLIEVASWKGVIVKG | 0.338
HMDANLGEIFKVYEQEIGALTPFVREEMLDAIDHYPRDWILDAIRESAKSNARNWKYTLAILKRWKAEG | -0.507
HMTLDDSFYQKADEIIANHTKEERSLIPIIQDIQAEYRYLPPELLTYVAKEIGITDARAYSVASFYENFS | -1.21
HMAGLYSLLLVELPMERLPEDLPAIKAAWLKTGDTEAFKVALQAMSSRGWTIAVPGKHRDTQMTQL | -0.235
HMQDREKNIAEGRDIIEHEFMRLGISLSRYDLDGLASKLNVKAGDDVLAGVGAGDIRVSQIISQLG | -0.747
HMKLHPRDQERTRAISARGERLYAVTVGDLRRRIGEMLEWFGRQIESQEPMRVAKAARRITDFFDQVEAFT | -2.15
HMHIVQEGDSLYGIARQYRITVEELRSLNALETADVIVPYQKLYV | -1.14
HMFPQQGEIRQGVIASITPDQILVNVGTKSEGIISGKELEAISKSERDSLNVDQKIAVYILDPEDSNG | -0.391
HMSINISFEPADHLGKDVIFIRFPYDNEWIQRVRKLKGAKWSQSQRAWHVPDTEHYRTLFQLPQKI | -0.704
HMSLSEYLSAPVLEGQRNHALFSAVMQAREQGWDEWQIRTTIGAKAEADGLRHAEIAATIRSAMSREITP | -0.0425
HMLISDENMLRDLVQAVLDENPKSVSDYKSGKTKAFGFLVGQTMKAVKGQADPMLVNKILTELLN | -0.0698
HMGPRPLPAEFTHPSLRALLALGTTRGGVTSADVKTALEAASVPAGRRAAVLRALDDNGIEVHTEP | 0.107
HMDGKTALQEIVASSGWSPPEYKVSESGPDHDKDFVAYAIVNGVAYPEGHGKSKREAEQVAARIAFEALSK | -0.00195
HMQTPVTVGDTMPNLIGTPKRLLLELLNRTDITVKLTGDGYVTAQSPAAGTPIAKGMIIELSL | 0.19
HMGDIFTAEDAKERIDYSGVDGIMLARGIFGNPWLIRDIREYLEYGKILHPVTQLDRVNMAIEHTRKT | -0.25
HMAKNYYEILGLKSDATLPEIKKAFKKLSKKFHPDKNRDDDGYFESMFKSINEAYQVLIDEDKRATFDSHH | 0.166
HMNSTEQQTERFLATLTSLGGNAGNQRLQEALGWQGSTYQRIKQHLLDEGRIRTGRGRGGSVALSEATAT | ≥ 0.43
HMTKNEFLQGLKEELEGRVTHSAIQENIRYYDDYISQEVLKGSTEEEVTESLGGPRIIARTIVDAAYD | -2.29
HMGEIHALIPGLVSRLFVKPGDRVENGQGLLILEAMKMENEIDSPISGVVGKIYIKAGDKVEKGELIMEIN | 0.115
HMIEGETPEQTMERVSKDPEIVQILQDPVMQGILAQARENPAALQDHMKNPEVYKKINMLIAAGVIRT | -0.113
HMNENDPRVIKTRRLLLDSFVVLVRKKDFTSISVKDITDSAQVNRATFYAHFQDKYDILEYMVID | -0.198
HMNADKEALIAAAYRNSLIENFGTENVERYEERFNKWADKHDRQGMPMYPTIEKWMNEDNIA | -0.209
HMGTHSAEQVRAAIRAIVAAEDAANPLSDARITELLAMRGIAAARRTVMKYREQLGIPSSAKRRR | ≥ 0.43

Sequence | soluble fraction (log2)
HMGETRWTYDDFGNILTEKAAPYSATEFLGKTYTYDTDNRYLKTVTDALGRTTTTLSYDKYGNPLSVMD | -0.357
HMAPPPPEGYIHRWIRESVMGFDDKKNLSARIREGFELVRAEEYPDYEAPTVMDGKHAGVIANGGLLLARF | -0.236
HMEKLPRYILPGVPKVKSINISSALDGLVQDYSREFNISQKDIFQIALVEFFKKYGYHNAVKAVL | 0.0067
HMKRTKLEEATEWLRDRLSDGVKYNGEELLREGESADMARRTLRRAAQELGVIIERERGARGRWFWSLP | 0.254
HMGREVVVPNLAGIEKEVALDLLKKNRLGGMITGTRFSSDFPAGQVIQQMPEAGSRVKVGKQVKLVLSEG | 0.334
HMNDTVGMNIRRLRKERGMTQGDLADKAGIQRETISKYESNKLTPPSYNLESIEKALKVPAGTLAQ | 0.22
HMGIQYVASGHYARMETDAQGVSRLFPPESGAPDESDRLAALSPEVLTRLILPLGDFAPEDVEEMAVD | -0.294
HMTALAVGDRVKMDKSATIYGTMRKFAAWVYATKLYVRGIDGNRVVVSTLKSGAITGAVDKKHLTK | -0.0515
HMSEQTLEDVRRLIEHLPESQKEVVKMRYYQDLSFKEIADLKGISINTALGRMHYAINNMRKMAKEYGL | -0.473
HMPNTLAGIERYLGSGMVKGIGPVYASRLVSAFGTAVFDVIEQTPERLREIDGIGEKRTRKITSGWADQ | -0.242
HMSSAVKRALAELPENWRMIVYYRVVEGLSYAEIAKVLDIPDGSVMSGLHRGKKMLRGLLLEYAQQEGYD | -0.74
HMAEPTLNERLREALSDPAKLKIAKAIKAKYPIITARDIDTFLNMHEKDIENGADPMDEFEEFFHANY | -0.132
HMVEELDVQFIKLTVQGDHPWKNKKIRELSIPWDLLFVLIIRGDKSIIPNGKTTIKDGDIVVVSAPEYRG | -1.5
HMEDVTLSLVVGEDLDGERLDVFLTWKLDRTRSQVQALIRDGKVRLEQGQRARPSMVVRSGMGISVSLEPR | -1.11
HMKNLDILTPKEIEVLNLVAKGYSNSKISKELDIAEVTVKKHIGSMFQKLDVKDRLSLALIL | -0.52
HMHSFFGDNIKKLRTAKKMSQEQLADIFGITKAGISYWETGRSEPNFATVQKLADFFGVTTSDLLGEA | 0.187
HMGQDLEAFLLKAVGQLDQGDGVTLDALLKVAVSNGGFVREVAEAKLDDMLDAGTLDEPRFGWFRVGAT | -1.68
HMGVYDLIYLGYGINVEKEELVDQNISIIRRYANIFDPNGDIKGSTNPTYASNTAVLFNEAKFIIDGYD | -1.79
HMKESRLFRILYYLLQHKKATAPELAEEFEVSVRTIYRDIDYISSAGVPIYATQGKDGGIAILDSF | -0.81
HMPGGLSAEDVEKMVEKVLTVNGDVVEEIRSGRDPKGKKIKFLAGLVMRDARGQADAAAVSGILERRLKEG | 0.371
HMENFIPDDPKRIEIGMSVLHQRFGKGKVMQLEGNLPDMKATVNFEGEGQKQLLLKYARLKIV | -0.0241
HMMVIMRANATEPQIANVVAYVEKNGLNAHLSRGAERTVIGVVGDIRRVSKETFELMDGVDSVMRIS | -0.734
HMAGTRVWSENGQLYVTAAVSGRANVYNVLGKLNRSLTFSAGETKSVSVPAGIYVVSLNNGKAYKVAV | 0.0936
HMYVADVVGMGIKDALYILENQGLRVVFTGKGVVKNQSIAVGEKIIKGEKIVLML | -0.723
